Data on two molecules can be found in publication PMC9956592 (2023).

Assay [1] addresses T1, Ubiquitin Specific Peptidase 11 (USP11) (human, UniProt P51784 1-963, biotin (biotinylated USP11 in the yeast display assays)). In words: SPR. Background: Surface plasmon resonance follows binding to a sensor surface in real time, without labels.
The target of assay [2] is T1, Ubiquitin Specific Peptidase 11 (USP11). In words: SPR. This is another data set of the same source.

Residue numbers refer to the chain shown, from its start.

T1 sequence (P51784 whole entry): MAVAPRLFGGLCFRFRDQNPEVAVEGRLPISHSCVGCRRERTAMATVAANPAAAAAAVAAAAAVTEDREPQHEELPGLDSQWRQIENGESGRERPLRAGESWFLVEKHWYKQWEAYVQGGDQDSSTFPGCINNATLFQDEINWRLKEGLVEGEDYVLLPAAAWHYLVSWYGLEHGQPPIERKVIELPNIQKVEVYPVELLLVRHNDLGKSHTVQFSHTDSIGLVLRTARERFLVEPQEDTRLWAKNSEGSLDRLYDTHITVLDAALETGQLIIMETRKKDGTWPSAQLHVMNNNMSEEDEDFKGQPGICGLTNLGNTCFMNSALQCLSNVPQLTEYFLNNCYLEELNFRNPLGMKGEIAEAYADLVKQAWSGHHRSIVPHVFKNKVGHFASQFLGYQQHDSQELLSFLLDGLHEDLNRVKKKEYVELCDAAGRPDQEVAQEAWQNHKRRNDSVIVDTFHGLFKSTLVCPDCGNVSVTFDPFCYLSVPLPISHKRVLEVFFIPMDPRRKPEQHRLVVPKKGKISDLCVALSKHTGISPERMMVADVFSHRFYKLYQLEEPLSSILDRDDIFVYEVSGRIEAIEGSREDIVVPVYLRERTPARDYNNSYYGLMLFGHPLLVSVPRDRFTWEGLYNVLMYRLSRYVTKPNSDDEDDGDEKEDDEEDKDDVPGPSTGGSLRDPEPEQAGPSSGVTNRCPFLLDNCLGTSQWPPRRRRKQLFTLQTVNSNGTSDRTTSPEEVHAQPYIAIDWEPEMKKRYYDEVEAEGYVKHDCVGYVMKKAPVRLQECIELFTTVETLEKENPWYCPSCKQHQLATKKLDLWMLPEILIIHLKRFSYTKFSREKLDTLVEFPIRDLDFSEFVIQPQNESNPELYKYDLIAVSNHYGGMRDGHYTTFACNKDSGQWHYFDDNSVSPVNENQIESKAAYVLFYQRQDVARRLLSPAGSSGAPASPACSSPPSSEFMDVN

B1: scTGP USP11-C3, purified protein (scFv, V domains shown)
VH: QVQLVQSGAEVKKPGSSVKVSCKASGGTFSSYAISWVRQAPGQGLEWMGGIIPIFGTANYAQKFQGRVTITADESTSTAYMELSSLRSEDTAVYYCAREGGIGLSGWLDPWGQGTLVTVSS
VL: EIVLTQSPGTLSLSPGERATLFCRASQSVSSNLAWYQQKPGQAPRLLIYGASTRATGIPARFSGSGSGTEFTLTISSLQSEDFAVYYCQQYDDWPLTFGGGTKVDIK
Usually Kd stands for the free concentration of one partner at which half of the binding sites on the other are occupied at equilibrium, for simple one-to-one binding. Higher therefore signals a looser complex. Usually koff stands for the rate constant with which the complex falls apart. Read a low koff as slow dissociation. The molecule B1 yielded a dissociation constant Kd in assay [1] of 160 nM. Moreover, the koff in assay [2] was found to be 0.0038 s⁻¹.

B2: scTGP USP11-B6, purified protein (scFv, V domains shown)
VH: B1 VH with Q65L
VL: EIVMTQTPGTLCLSPGERATLSCRASQSVSNNNLAWYQQKPGQAPRLLIFGASNRATGIPDRFSGSGSGTDFTLTISSLQSEDFAVYYCQQYDSWPLTFGGGTKLEIK
For the molecule B2, binding in assay [1] was characterised by a dissociation constant (Kd) of 48 nM. The molecule also displayed a koff in assay [2] of 0.00089 s⁻¹.
